In patent US20230219996A1:

Assays:
[1] = target: SARS-CoV-2 spike (B.1.1.7, UK, Alpha) (SARS-CoV-2); assay: MSD V-PLEX ACE2 kit, sVNT, positive control; competitor ACE2 (NHP study)
[2] = target: SARS-CoV-2 spike (P.1, Brazil, Gamma) (SARS-CoV-2); assay: as above
[3] = target: SARS-CoV-2 spike (B.1.351, South Africa, Beta) (SARS-CoV-2); assay: as above
[4] = target: SARS-CoV-2 spike (B.1.1.7, UK, Alpha) (SARS-CoV-2); assay: MSD V-PLEX ACE2 kit, sVNT, positive control; competitor ACE2 (mouse study)
[5] = target: SARS-CoV-2 spike (P.1, Brazil, Gamma) (SARS-CoV-2); assay: as above
[6] = target: SARS-CoV-2 spike (B.1.351, South Africa, Beta) (SARS-CoV-2); assay: as above

Measured: ACE2-binding percent inhibition

ACE2 Calibration Reagent (included in the MSD kit)
100%: all assays above
